Assays:
RecGMtb [1] = target: T1, RecGMtb (Mycobacterium tuberculosis H37Rv, UniProt P9WMQ7 1-737); assay: EMSA; no poly(dI-dC); 1 uM RecG; details: protein: recombinant; tags: N-terminal His6 cleaved off with thrombin (pET28b); label: 32P 5' end
T1 sequence: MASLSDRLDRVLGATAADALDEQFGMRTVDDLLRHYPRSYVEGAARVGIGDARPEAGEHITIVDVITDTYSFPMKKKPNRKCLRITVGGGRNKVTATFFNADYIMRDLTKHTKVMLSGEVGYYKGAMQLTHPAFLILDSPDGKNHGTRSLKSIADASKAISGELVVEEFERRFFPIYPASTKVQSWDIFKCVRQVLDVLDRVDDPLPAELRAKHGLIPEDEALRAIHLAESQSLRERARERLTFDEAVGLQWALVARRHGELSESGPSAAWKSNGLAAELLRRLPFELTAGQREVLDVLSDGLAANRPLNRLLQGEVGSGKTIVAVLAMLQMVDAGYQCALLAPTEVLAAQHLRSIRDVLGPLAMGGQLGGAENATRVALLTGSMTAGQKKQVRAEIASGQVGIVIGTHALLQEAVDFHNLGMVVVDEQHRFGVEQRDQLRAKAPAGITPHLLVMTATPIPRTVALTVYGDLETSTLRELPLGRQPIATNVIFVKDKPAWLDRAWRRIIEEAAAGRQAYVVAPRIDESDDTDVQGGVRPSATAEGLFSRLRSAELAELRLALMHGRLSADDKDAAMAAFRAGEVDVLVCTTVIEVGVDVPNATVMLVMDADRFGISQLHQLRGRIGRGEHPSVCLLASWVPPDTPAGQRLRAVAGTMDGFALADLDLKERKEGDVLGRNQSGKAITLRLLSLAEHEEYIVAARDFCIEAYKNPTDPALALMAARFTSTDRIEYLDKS

RecGMtb [2] = target: T1, RecGMtb; assay: EMSA; 5 mM EDTA, poly(dI-dC); 2 uM RecG; details: protein: recombinant; tags: N-terminal His6 cleaved off with thrombin (pET28b); label: 32P 5' end; bubble 1:2
RecGMtb [3] = target: T1, RecGMtb; assay: EMSA; 5 mM EDTA, poly(dI-dC); details: protein: recombinant, tags: N-terminal His6 cleaved off with thrombin (pET28b), label: 32P 5' end

TTTTTTTTTTTTTTTTTTTTTTTTTTTTTTTTTTTTTTTT (ssDNA) [poly(dT) 40 nt]: binds (RecGMtb [1]).

B1: bubble (substrate I) (structured_DNA)
DNA 1: GGGTGAACCTGCAGGTGGGCGGCTGCTCATCGTAGGTTAGTTGGTAGAATTCGGCAGCGTC
DNA 2: GACGCTGCCGAATTCTACCAGTGCCTTGCTAGGACATCTTTGCCCACCTGCAGGTTCACCC
B1: binds (RecGMtb [2]).

B2: 5'-tailed duplex (oligos 3+2) (dsDNA)
DNA 1: TTTTTTTTTTTTTTTTTTTTCGTGACATGCCGTGACTAGC
DNA 2: GCTAGTCACGGCATGTCACG
B2: no binding (RecGMtb [3]; 5' overhang 20 nt (T20)).

B3: Holliday junction (substrate H) (structured_DNA)
DNA 1: GACGCTGCCGAATTCTGGCTTGCTAGGACATCTTTGCCCACGTTGACCC
DNA 2: TGGGTCAACGTGGGCAAAGATGTCCTAGCAATGTAATCGTCTATGACGTT
DNA 3: CAACGTCATAGACGATTACATTGCTAGGACATGCTGTCTAGAGACTATCGA
DNA 4: ATCGATAGTCTCTAGACAGCATGTCCTAGCAAGCCAGAATTCGGCAGCGT
B3: binds (RecGMtb [3]).

B4: 3'-tailed duplex (oligos 1+2) (dsDNA)
DNA 1: CGTGACATGCCGTGACTAGCTTTTTTTTTTTTTTTTTTTT
DNA 2: GCTAGTCACGGCATGTCACG
B4: no binding (RecGMtb [3]; 3' overhang 20 nt (T20)).

B5: lagging strand replication fork (substrate E) (structured_DNA)
DNA 1: GTCGGATCCTCTAGACAGCTCCATGATCACTGGCACTGGTAGAATTCGGC
DNA 2: CAACGTCATAGACGATTACATTGCTACATGGAGCTGTCTAGAGGATCCGA
DNA 3: TAGCAATGTAATCGTCTATGACGTT
B5: binds (RecGMtb [3]; fork 1:2 2:3).
